# Patent US7541141B2, “Method of using estrogen-related receptor alpha (ERRα) status to determine prognosis, treatment strategy and predisposition to breast cancer, and method of using ERRα as a therapeutic target for the treatment of breast cancer” (Wisconsin Alumni Research Foundation, priority 1997, dated 2009)
# T1: ERRα (Homo sapiens, UniProt P11474)
# T1 sequence (P11474 1-423): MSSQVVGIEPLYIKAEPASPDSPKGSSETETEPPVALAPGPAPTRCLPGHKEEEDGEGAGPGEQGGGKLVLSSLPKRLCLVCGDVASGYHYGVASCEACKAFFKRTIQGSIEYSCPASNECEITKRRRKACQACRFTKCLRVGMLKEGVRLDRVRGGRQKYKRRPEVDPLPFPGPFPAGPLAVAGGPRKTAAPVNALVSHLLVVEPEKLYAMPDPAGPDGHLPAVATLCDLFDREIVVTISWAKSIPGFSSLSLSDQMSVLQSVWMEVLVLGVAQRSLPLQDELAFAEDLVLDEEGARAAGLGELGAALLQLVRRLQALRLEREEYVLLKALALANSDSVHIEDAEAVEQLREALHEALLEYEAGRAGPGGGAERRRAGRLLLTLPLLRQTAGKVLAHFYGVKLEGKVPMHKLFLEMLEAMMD
# Key:
# [1] = biological target: ERRγ (Homo sapiens, UniProt P62508); conditions: cell-based assays; cited from earlier work
# Sequence of ERRγ (P62508 whole entry): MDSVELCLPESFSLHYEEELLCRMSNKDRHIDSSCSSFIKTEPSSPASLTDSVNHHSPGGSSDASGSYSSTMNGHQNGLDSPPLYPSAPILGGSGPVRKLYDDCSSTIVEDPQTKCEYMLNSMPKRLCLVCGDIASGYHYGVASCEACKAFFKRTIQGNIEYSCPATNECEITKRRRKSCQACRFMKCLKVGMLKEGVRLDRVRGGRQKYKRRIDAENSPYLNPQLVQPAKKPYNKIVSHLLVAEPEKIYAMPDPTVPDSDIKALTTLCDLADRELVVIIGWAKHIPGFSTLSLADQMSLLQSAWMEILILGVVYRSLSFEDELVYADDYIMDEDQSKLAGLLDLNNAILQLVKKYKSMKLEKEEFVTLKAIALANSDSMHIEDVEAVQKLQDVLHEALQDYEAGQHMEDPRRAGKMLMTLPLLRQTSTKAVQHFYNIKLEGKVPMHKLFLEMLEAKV
# [2] = test system: ERE-dependent transcription in HeLa cells; assay: p3xERE-TK-luc luciferase reporter, transient transfection; format: cell-based, human; conditions: whole FBS
# Protocol: Transient Transfections and Luciferase Assays: To assess the role ERRα plays in regulating transcription of an ERE-containing promoter, MCF-7 or HeLa cells grown in 12-well tissue culture plates were co-transfected in parallel with 0.5 μg of pTK-luc versus p3xERE-TK-luc along with the indicated amounts of the empty cloning vector pcDNA3.1, the ERRα1 expression plasmid pcDNA3.1-hERRα1, or mutant variants thereof. Transfections were performed with the aid of the TransIT LT1 transfection reagent (PanVera, Madison, Wis.) as previously described (35). To examine the effects of ER ligands, […] (E2) (Sigma) or the pure anti-estrogen ICI-182,780 (Astra Zeneca, London, UK) dissolved in ethanol and diluted in medium to obtain the indicated concentrations. Cells were harvested 48 h post-transfection, and lysates were assayed for luciferase activity normalized to protein concentration as previously described (36).
# ERRα Activates Transcription in HeLa Cells: Our finding that ERRα represses transcription from an ERE-controlled promoter was somewhat surprising since most reports in the literature conclude that ERR family members function as transcriptional activators of ERE-dependent transcription (17-31). […]
# [3] = test system: ERE-dependent transcription in MCF-7 cells; assay: as above; format: cell-based, human
# Protocol: (§1) Transient Transfections and Luciferase Assays: To assess the role ERRα plays in regulating transcription of an ERE-containing promoter, MCF-7 or HeLa cells grown in 12-well tissue culture plates were co-transfected in parallel with 0.5 μg of pTK-luc versus p3xERE-TK-luc along with the indicated amounts of the empty cloning vector pcDNA3.1, the ERRα1 expression plasmid pcDNA3.1-hERRα1, or mutant variants thereof. Transfections were performed with the aid of the TransIT LT1 transfection reagent (PanVera, Madison, Wis.) as previously described (35). To examine the effects of ER ligands, cells were maintained in stripped medium for 48 h before transfection and the addition of 17β-estradiol (E2) (Sigma) or the pure anti-estrogen ICI-182,780 (Astra Zeneca, London, UK) dissolved in ethanol and diluted in medium to obtain the indicated concentrations. Cells were harvested 48 h post-transfection, and lysates were assayed for luciferase activity normalized to protein concentration as previously described (36).
# ERRα Represses Transcription in MCF-7 Cells: Because ERRα can interfere with the binding of ERα to this ERE, might it affect estrogen-responsive transcription? To answer this question, we co-transfected ERα-positive mammary MCF-7 cells in parallel with p3xERE-TK-luc, a reporter plasmid containing three tandem copies of this ERE (FIG. 14A) or the ERE-negative control plasmid, pTK-luc, together with 0.12 or 0.25 μg of the ERRα1 expression plasmid, pcDNA3.1-hERRα1, or the empty parental expression plasmid, pcDNA3.1. After incubation for 48 h in medium containing whole FBS, the cells were harvested and assayed for luciferase activity. The presence of the EREs conferred an about 150-fold increase in transcriptional activity above the level observed in the cells transfected with the ERE-negative reporter plasmid (FIG. 14B). […] Thus, ERRα inhibits the estrogen-responsive activation of transcription from this ERE-containing promoter in this ER-positive MCF-7 cell line.
# ERRα Modulates Estrogen-responsiveness in MCF-7 Cells: To directly examine the effect of ERRα on the response to estrogen, MCF-7 cells were cultured in medium containing estrogen-free charcoal-stripped FBS and cotransfected as described above but in the absence or presence of E2. […] Once again, overexpression of ERRα repressed ERE-dependent transcription approximately 3-fold while having little if any effect on transcription of the control reporter (FIG. 15A).
# [4] = biological target: T1, ERRα; conditions: cited from earlier work
# [5] = test system: ERE-independent TK-luc transcription in MCF-7 cells; assay: pTK-luc ERE-negative control luciferase reporter, transient transfection; format: cell-based, human; conditions: whole FBS, 48 h
# Protocol: as §1
# [6] = 0.12 or 0.25 μg expression plasmid, whole FBS, 48 h
molecule,measurement,setting,value
4-hydroxytamoxifen,Effect on ERRγ (literature),[1],selectively antagonizes ERRγ
"C[C@]12CC[C@@H]3c4ccc(O)cc4C[C@@H](CCCCCCCCC[S+]([O-])CCCC(F)(F)C(F)(F)F)[C@H]3[C@@H]1CC[C@@H]2O (some centres unmarked) [ICI-182,780, reference compound]",Effect of anti-estrogen on ERE-dependent activity,[2],completely insensitive
same,Effect of anti-estrogen on ERE-dependent activity,"[3]; 1×10^−6 M, charcoal-stripped FBS plus 1×10^−8 M E2",extremely sensitive
same,Effect of anti-estrogen on E2 induction of ERE reporter,"[3]; 1×10^−6 M, charcoal-stripped FBS plus 1×10^−10 M E2",completely eliminated
same,Effect of anti-estrogen on ERE-dependent activity,"[3]; 1×10^−6 M, charcoal-stripped FBS, no exogenous E2",largely ablated
same,Effect of anti-estrogen on ERE-dependent activity,"[3]; 1×10^−6 M, medium with whole FBS",extremely sensitive
ClC1=C(Cl)C2(Cl)C3C(Cl)C(Cl)CC3C1(Cl)C2(Cl)Cl (centres unmarked) [chlordane],Effect on ERRα activity (literature),[4],decrease the activity of ERRα
CC1(C)C(C(Cl)Cl)C2(Cl)C(Cl)C(Cl)C1(Cl)C2(Cl)Cl (centres unmarked) [toxaphene],Effect on ERRα activity (literature),[4],decrease the activity of ERRα
ERRα: wild-type human ERRα1 overexpressed from plasmid pcDNA3.1-hERRα1 (protein) MSSQVVGIEPLYIKAEPASPDSPKGSSETETEPPVALAPGPAPTRCLPGHKEEEDGEGAGPGEQGGGKLVLSSLPKRLCLVCGDVASGYHYGVASCEACKAFFKRTIQGSIEYSCPASNECEITKRRRKACQACRFTKCLRVGMLKEGVRLDRVRGGRQKYKRRPEVDPLPFPGPFPAGPLAVAGGPRKTAAPVNALVSHLLVVEPEKLYAMPDPAGPDGHLPAVATLCDLFDREIVVTISWAKSIPGFSSLSLSDQMSVLQSVWMEVLVLGVAQRSLPLQDELAFAEDLVLDEEGARAAGLGELGAALLQLVRRLQALRLEREEYVLLKALALANSDSVHIEDAEAVEQLREALHEALLEYEAGRAGPGGGAERRRAGRLLLTLPLLRQTAGKVLAHFYGVKLEGKVPMHKLFLEMLEAMMD,Activation of transcription from p3xERE-TK-luc by overexpression,[2]; 48 h,2.5 fold
same,Repression of ERE-dependent transcription by overexpression,[3]; [6],3-4 fold
same,Inhibition of E2-mediated activation of transcription by overexpression,[3]; charcoal-stripped FBS plus 1×10^−8 M E2,no longer inhibited
same,Inhibition of E2-mediated activation of transcription by overexpression,[3]; charcoal-stripped FBS plus 1×10^−10 M E2,3-5 fold
same,Repression of ERE-dependent transcription by overexpression,"[3]; charcoal-stripped FBS, no exogenous E2",approximately 3 fold
ERRα1413A/418A: ERRα1 variant with alanine in place of leucine at amino acids 413 and 418 (NR box) (protein) MSSQVVGIEPLYIKAEPASPDSPKGSSETETEPPVALAPGPAPTRCLPGHKEEEDGEGAGPGEQGGGKLVLSSLPKRLCLVCGDVASGYHYGVASCEACKAFFKRTIQGSIEYSCPASNECEITKRRRKACQACRFTKCLRVGMLKEGVRLDRVRGGRQKYKRRPEVDPLPFPGPFPAGPLAVAGGPRKTAAPVNALVSHLLVVEPEKLYAMPDPAGPDGHLPAVATLCDLFDREIVVTISWAKSIPGFSSLSLSDQMSVLQSVWMEVLVLGVAQRSLPLQDELAFAEDLVLDEEGARAAGLGELGAALLQLVRRLQALRLEREEYVLLKALALANSDSVHIEDAEAVEQLREALHEALLEYEAGRAGPGGGAERRRAGRLLLTLPLLRQTAGKVLAHFYGVKLEGKVPMHKAFLEMAEAMMD,Up-regulation of ERE-independent TK-luc transcription by overexpression,[5],approximately 2 fold
same,Repression of ERE-dependent transcription by overexpression,[3]; [6],5-8 fold
same,Repressive effect on ERE-dependent transcription normalized to the control,[3]; normalized to pTK-luc control,10-16 fold
"ERRα1P-box: ERRα1 variant with E97G/A98S/A101V in the P-box, unable to bind DNA (protein) MSSQVVGIEPLYIKAEPASPDSPKGSSETETEPPVALAPGPAPTRCLPGHKEEEDGEGAGPGEQGGGKLVLSSLPKRLCLVCGDVASGYHYGVASCGSCKVFFKRTIQGSIEYSCPASNECEITKRRRKACQACRFTKCLRVGMLKEGVRLDRVRGGRQKYKRRPEVDPLPFPGPFPAGPLAVAGGPRKTAAPVNALVSHLLVVEPEKLYAMPDPAGPDGHLPAVATLCDLFDREIVVTISWAKSIPGFSSLSLSDQMSVLQSVWMEVLVLGVAQRSLPLQDELAFAEDLVLDEEGARAAGLGELGAALLQLVRRLQALRLEREEYVLLKALALANSDSVHIEDAEAVEQLREALHEALLEYEAGRAGPGGGAERRRAGRLLLTLPLLRQTAGKVLAHFYGVKLEGKVPMHKLFLEMLEAMMD",Induction of ERE-dependent transcription by overexpression,"[3]; whole FBS, 48 h",2-3 fold
